In patent US12630600B2 (MEDIMMUNE LIMITED, priority 2022, dated 2026):
Starred links: 1 amine or outer side, 2 acyl side, 3 side chain; linkers in the order of their positions; H or OH if unused. Non-standard residues stand in square brackets, D forms with d. Groups on a side chain read outwards from the residue. No end group written: not given here. *: point of attachment. C20 diacid = O=C(O)CCCCCCCCCCCCCCCCCCC(=O)*; C18 diacid = O=C(O)CCCCCCCCCCCCCCCCC(=O)*; γGlu = O=C(O)[C@H](CCC(=O)[*:2])N[*:1]; αMeF = C[C@](N)(Cc1ccccc1)C(=O)O; AEEA = NCCOCCOCC(=O)O; Aib = CC(C)(N)C(=O)O

B1: Peptide 149 (peptide)
peptide: H[Aib]QGTFTSDVSK[αMeF]LDSK([AEEA-AEEA-γGlu-C18 diacid])RAQDFVRWVVE[Aib]G-OH
modifications: N-terminus assumed
SMILES: CC(C)C[C@H](NC(=O)[C@](C)(Cc1ccccc1)NC(=O)[C@H](CCCCN)NC(=O)[C@H](CO)NC(=O)[C@@H](NC(=O)[C@H](CC(=O)O)NC(=O)[C@H](CO)NC(=O)[C@@H](NC(=O)[C@H](Cc1ccccc1)NC(=O)[C@@H](NC(=O)CNC(=O)[C@H](CCC(N)=O)NC(=O)C(C)(C)NC(=O)[C@@H](N)Cc1c[nH]cn1)[C@@H](C)O)[C@@H](C)O)C(C)C)C(=O)N[C@@H](CC(=O)O)C(=O)N[C@@H](CO)C(=O)N[C@@H](CCCCNC(=O)COCCOCCNC(=O)COCCOCCNC(=O)CC[C@H](NC(=O)CCCCCCCCCCCCCCCCC(=O)O)C(=O)O)C(=O)N[C@@H](CCCNC(=N)N)C(=O)N[C@@H](C)C(=O)N[C@@H](CCC(N)=O)C(=O)N[C@@H](CC(=O)O)C(=O)N[C@@H](Cc1ccccc1)C(=O)N[C@H](C(=O)N[C@@H](CCCNC(=N)N)C(=O)N[C@@H](Cc1c[nH]c2ccccc12)C(=O)N[C@H](C(=O)N[C@H](C(=O)N[C@@H](CCC(=O)O)C(=O)NC(C)(C)C(=O)NCC(=O)O)C(C)C)C(C)C)C(C)C
B2: Peptide 151 (peptide)
peptide: H[Aib]QGTFTSDVSK[αMeF]LDSK([AEEA-AEEA-γGlu-C20 diacid])RAQDFVRWLL[Aib]TE-OH
modifications: N-terminus assumed
SMILES: CC(C)C[C@H](NC(=O)[C@H](Cc1c[nH]c2ccccc12)NC(=O)[C@H](CCCNC(=N)N)NC(=O)[C@@H](NC(=O)[C@H](Cc1ccccc1)NC(=O)[C@H](CC(=O)O)NC(=O)[C@H](CCC(N)=O)NC(=O)[C@H](C)NC(=O)[C@H](CCCNC(=N)N)NC(=O)[C@H](CCCCNC(=O)COCCOCCNC(=O)COCCOCCNC(=O)CC[C@H](NC(=O)CCCCCCCCCCCCCCCCCCC(=O)O)C(=O)O)NC(=O)[C@H](CO)NC(=O)[C@H](CC(=O)O)NC(=O)[C@H](CC(C)C)NC(=O)[C@](C)(Cc1ccccc1)NC(=O)[C@H](CCCCN)NC(=O)[C@H](CO)NC(=O)[C@@H](NC(=O)[C@H](CC(=O)O)NC(=O)[C@H](CO)NC(=O)[C@@H](NC(=O)[C@H](Cc1ccccc1)NC(=O)[C@@H](NC(=O)CNC(=O)[C@H](CCC(N)=O)NC(=O)C(C)(C)NC(=O)[C@@H](N)Cc1c[nH]cn1)[C@@H](C)O)[C@@H](C)O)C(C)C)C(C)C)C(=O)N[C@@H](CC(C)C)C(=O)NC(C)(C)C(=O)N[C@H](C(=O)N[C@@H](CCC(=O)O)C(=O)O)[C@@H](C)O
B3: Peptide 152 (peptide)
peptide: H[Aib]QGTFTSDVSK[αMeF]LDSK([AEEA-AEEA-γGlu-C18 diacid])RAQDFVRWLL[Aib]E-OH
modifications: N-terminus assumed
SMILES: CC(C)C[C@H](NC(=O)[C@H](Cc1c[nH]c2ccccc12)NC(=O)[C@H](CCCNC(=N)N)NC(=O)[C@@H](NC(=O)[C@H](Cc1ccccc1)NC(=O)[C@H](CC(=O)O)NC(=O)[C@H](CCC(N)=O)NC(=O)[C@H](C)NC(=O)[C@H](CCCNC(=N)N)NC(=O)[C@H](CCCCNC(=O)COCCOCCNC(=O)COCCOCCNC(=O)CC[C@H](NC(=O)CCCCCCCCCCCCCCCCC(=O)O)C(=O)O)NC(=O)[C@H](CO)NC(=O)[C@H](CC(=O)O)NC(=O)[C@H](CC(C)C)NC(=O)[C@](C)(Cc1ccccc1)NC(=O)[C@H](CCCCN)NC(=O)[C@H](CO)NC(=O)[C@@H](NC(=O)[C@H](CC(=O)O)NC(=O)[C@H](CO)NC(=O)[C@@H](NC(=O)[C@H](Cc1ccccc1)NC(=O)[C@@H](NC(=O)CNC(=O)[C@H](CCC(N)=O)NC(=O)C(C)(C)NC(=O)[C@@H](N)Cc1c[nH]cn1)[C@@H](C)O)[C@@H](C)O)C(C)C)C(C)C)C(=O)N[C@@H](CC(C)C)C(=O)NC(C)(C)C(=O)N[C@@H](CCC(=O)O)C(=O)O
B4: Peptide 148 (peptide)
peptide: H[Aib]QGTFTSDVSK[αMeF]LDSK([AEEA-AEEA-γGlu-C18 diacid])RAQDFVRWIAE[Aib]G-OH
modifications: N-terminus assumed
SMILES: CC[C@H](C)[C@H](NC(=O)[C@H](Cc1c[nH]c2ccccc12)NC(=O)[C@H](CCCNC(=N)N)NC(=O)[C@@H](NC(=O)[C@H](Cc1ccccc1)NC(=O)[C@H](CC(=O)O)NC(=O)[C@H](CCC(N)=O)NC(=O)[C@H](C)NC(=O)[C@H](CCCNC(=N)N)NC(=O)[C@H](CCCCNC(=O)COCCOCCNC(=O)COCCOCCNC(=O)CC[C@H](NC(=O)CCCCCCCCCCCCCCCCC(=O)O)C(=O)O)NC(=O)[C@H](CO)NC(=O)[C@H](CC(=O)O)NC(=O)[C@H](CC(C)C)NC(=O)[C@](C)(Cc1ccccc1)NC(=O)[C@H](CCCCN)NC(=O)[C@H](CO)NC(=O)[C@@H](NC(=O)[C@H](CC(=O)O)NC(=O)[C@H](CO)NC(=O)[C@@H](NC(=O)[C@H](Cc1ccccc1)NC(=O)[C@@H](NC(=O)CNC(=O)[C@H](CCC(N)=O)NC(=O)C(C)(C)NC(=O)[C@@H](N)Cc1c[nH]cn1)[C@@H](C)O)[C@@H](C)O)C(C)C)C(C)C)C(=O)N[C@@H](C)C(=O)N[C@@H](CCC(=O)O)C(=O)NC(C)(C)C(=O)NCC(=O)O
B5: Peptide 146 (peptide)
peptide: H[Aib]QGTFTSDVSK[αMeF]LDSK([AEEA-AEEA-γGlu-C18 diacid])RAQDFVRWLASR-OH
modifications: N-terminus assumed
SMILES: CC(C)C[C@H](NC(=O)[C@H](Cc1c[nH]c2ccccc12)NC(=O)[C@H](CCCNC(=N)N)NC(=O)[C@@H](NC(=O)[C@H](Cc1ccccc1)NC(=O)[C@H](CC(=O)O)NC(=O)[C@H](CCC(N)=O)NC(=O)[C@H](C)NC(=O)[C@H](CCCNC(=N)N)NC(=O)[C@H](CCCCNC(=O)COCCOCCNC(=O)COCCOCCNC(=O)CC[C@H](NC(=O)CCCCCCCCCCCCCCCCC(=O)O)C(=O)O)NC(=O)[C@H](CO)NC(=O)[C@H](CC(=O)O)NC(=O)[C@H](CC(C)C)NC(=O)[C@](C)(Cc1ccccc1)NC(=O)[C@H](CCCCN)NC(=O)[C@H](CO)NC(=O)[C@@H](NC(=O)[C@H](CC(=O)O)NC(=O)[C@H](CO)NC(=O)[C@@H](NC(=O)[C@H](Cc1ccccc1)NC(=O)[C@@H](NC(=O)CNC(=O)[C@H](CCC(N)=O)NC(=O)C(C)(C)NC(=O)[C@@H](N)Cc1c[nH]cn1)[C@@H](C)O)[C@@H](C)O)C(C)C)C(C)C)C(=O)N[C@@H](C)C(=O)N[C@@H](CO)C(=O)N[C@@H](CCCNC(=N)N)C(=O)O
B6: Peptide 153 (peptide)
peptide: H[Aib]QGTFTSDVSK[αMeF]LDSK([AEEA-AEEA-γGlu-C20 diacid])RAQDFVRWLL[Aib]E-OH
modifications: N-terminus assumed
SMILES: CC(C)C[C@H](NC(=O)[C@H](Cc1c[nH]c2ccccc12)NC(=O)[C@H](CCCNC(=N)N)NC(=O)[C@@H](NC(=O)[C@H](Cc1ccccc1)NC(=O)[C@H](CC(=O)O)NC(=O)[C@H](CCC(N)=O)NC(=O)[C@H](C)NC(=O)[C@H](CCCNC(=N)N)NC(=O)[C@H](CCCCNC(=O)COCCOCCNC(=O)COCCOCCNC(=O)CC[C@H](NC(=O)CCCCCCCCCCCCCCCCCCC(=O)O)C(=O)O)NC(=O)[C@H](CO)NC(=O)[C@H](CC(=O)O)NC(=O)[C@H](CC(C)C)NC(=O)[C@](C)(Cc1ccccc1)NC(=O)[C@H](CCCCN)NC(=O)[C@H](CO)NC(=O)[C@@H](NC(=O)[C@H](CC(=O)O)NC(=O)[C@H](CO)NC(=O)[C@@H](NC(=O)[C@H](Cc1ccccc1)NC(=O)[C@@H](NC(=O)CNC(=O)[C@H](CCC(N)=O)NC(=O)C(C)(C)NC(=O)[C@@H](N)Cc1c[nH]cn1)[C@@H](C)O)[C@@H](C)O)C(C)C)C(C)C)C(=O)N[C@@H](CC(C)C)C(=O)NC(C)(C)C(=O)N[C@@H](CCC(=O)O)C(=O)O
B7: Peptide 147 (peptide)
peptide: H[Aib]QGTFTSDVSK[αMeF]LDSK([AEEA-AEEA-γGlu-C18 diacid])RAQDFVRWLEA[Aib]G-OH
modifications: N-terminus assumed
SMILES: CC(C)C[C@H](NC(=O)[C@H](Cc1c[nH]c2ccccc12)NC(=O)[C@H](CCCNC(=N)N)NC(=O)[C@@H](NC(=O)[C@H](Cc1ccccc1)NC(=O)[C@H](CC(=O)O)NC(=O)[C@H](CCC(N)=O)NC(=O)[C@H](C)NC(=O)[C@H](CCCNC(=N)N)NC(=O)[C@H](CCCCNC(=O)COCCOCCNC(=O)COCCOCCNC(=O)CC[C@H](NC(=O)CCCCCCCCCCCCCCCCC(=O)O)C(=O)O)NC(=O)[C@H](CO)NC(=O)[C@H](CC(=O)O)NC(=O)[C@H](CC(C)C)NC(=O)[C@](C)(Cc1ccccc1)NC(=O)[C@H](CCCCN)NC(=O)[C@H](CO)NC(=O)[C@@H](NC(=O)[C@H](CC(=O)O)NC(=O)[C@H](CO)NC(=O)[C@@H](NC(=O)[C@H](Cc1ccccc1)NC(=O)[C@@H](NC(=O)CNC(=O)[C@H](CCC(N)=O)NC(=O)C(C)(C)NC(=O)[C@@H](N)Cc1c[nH]cn1)[C@@H](C)O)[C@@H](C)O)C(C)C)C(C)C)C(=O)N[C@@H](CCC(=O)O)C(=O)N[C@@H](C)C(=O)NC(C)(C)C(=O)NCC(=O)O

target: human glucagon receptor (human, UniProt P47871); test: cell-based or functional assay

Row | Binder | cAMP production EC50 [nM]
1 | B1 | 2.65
2 | B2 | 0.178
3 | H[Aib]QGTFTSDVSK[αMeF]LDSK([AEEA-AEEA-γGlu-C18 diacid])RARDFVRWLL[Aib]TE-OH (also: αMePhe at 23 (V)) [Peptide 166] | 0.27
4 | B3 | 0.0204
5 | B4 | 0.568
6 | H[Aib]QGTFTSDVSK[αMeF]LDSK([AEEA-AEEA-γGlu-C18 diacid])RAQDFVQWLL[Aib]TE-OH (not fully specified) [Peptide 150] | 0.355
7 | B5 | 1.63
8 | B6 | 0.099
9 | B7 | 0.0435

target: human GLP-1 receptor (human, UniProt P43220); test: cell-based or functional assay

Row | Binder | cAMP production EC50 [nM]
10 | B1 | 0.00871
11 | B2 | 0.111
12 | H[Aib]QGTFTSDVSK[αMeF]LDSK([AEEA-AEEA-γGlu-C18 diacid])RARDFVRWLL[Aib]TE-OH (also: αMePhe at 23 (V)) [Peptide 166] | 0.048
13 | B3 | 0.0119
14 | B4 | 0.0402
15 | H[Aib]QGTFTSDVSK[αMeF]LDSK([AEEA-AEEA-γGlu-C18 diacid])RAQDFVQWLL[Aib]TE-OH (not fully specified) [Peptide 150] | 0.166
16 | B5 | 0.0246
17 | B6 | 0.0412
18 | B7 | 0.0153
